Experimental data from PMC9203054, “Dynamics of allosteric regulation of the phospholipase C-γ isozymes upon recruitment to membranes” (eLife, 2022).
Numbering of substitutions follows the chain as printed. In names and notes the source's numbering stands.

T1: PLC-γ1 (D1165H), rat phospholipase C-γ1 residues 21–1215 (rat, UniProt P10686 21-1215, D1165H)
T1 sequence (looked up): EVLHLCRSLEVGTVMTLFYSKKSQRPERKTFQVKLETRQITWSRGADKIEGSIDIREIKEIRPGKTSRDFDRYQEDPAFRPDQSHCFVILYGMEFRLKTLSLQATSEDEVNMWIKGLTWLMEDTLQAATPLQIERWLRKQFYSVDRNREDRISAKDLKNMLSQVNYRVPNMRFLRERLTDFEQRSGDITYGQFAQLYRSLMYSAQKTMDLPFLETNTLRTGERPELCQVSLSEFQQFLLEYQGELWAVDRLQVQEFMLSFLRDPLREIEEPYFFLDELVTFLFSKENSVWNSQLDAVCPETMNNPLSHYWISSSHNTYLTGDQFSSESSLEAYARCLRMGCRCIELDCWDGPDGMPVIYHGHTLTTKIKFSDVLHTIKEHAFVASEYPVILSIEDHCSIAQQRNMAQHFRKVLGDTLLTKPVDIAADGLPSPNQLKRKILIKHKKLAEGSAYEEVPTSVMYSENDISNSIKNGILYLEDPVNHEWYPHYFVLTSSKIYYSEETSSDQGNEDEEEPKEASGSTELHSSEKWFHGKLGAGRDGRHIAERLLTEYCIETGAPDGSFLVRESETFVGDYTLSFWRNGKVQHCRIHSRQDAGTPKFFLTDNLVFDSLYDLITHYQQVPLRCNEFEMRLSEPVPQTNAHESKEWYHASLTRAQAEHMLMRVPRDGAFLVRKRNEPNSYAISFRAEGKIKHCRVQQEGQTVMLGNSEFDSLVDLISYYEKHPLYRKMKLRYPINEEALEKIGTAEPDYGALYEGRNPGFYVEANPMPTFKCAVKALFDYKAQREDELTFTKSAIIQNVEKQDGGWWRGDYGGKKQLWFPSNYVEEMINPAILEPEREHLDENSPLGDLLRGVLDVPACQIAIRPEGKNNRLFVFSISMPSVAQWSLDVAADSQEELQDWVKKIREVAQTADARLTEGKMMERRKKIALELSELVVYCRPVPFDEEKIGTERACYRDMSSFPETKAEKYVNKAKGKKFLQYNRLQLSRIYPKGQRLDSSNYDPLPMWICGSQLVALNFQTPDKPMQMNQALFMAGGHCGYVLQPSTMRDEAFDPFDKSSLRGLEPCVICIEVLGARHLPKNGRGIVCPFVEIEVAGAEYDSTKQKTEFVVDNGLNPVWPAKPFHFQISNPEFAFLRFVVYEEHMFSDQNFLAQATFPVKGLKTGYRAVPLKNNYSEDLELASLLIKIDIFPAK

T2: wild-type PLC-γ1, rat phospholipase C-γ1 residues 21–1215 (rat, UniProt P10686 21-1215)
T2 sequence (looked up): T1 sequence (looked up) with H1145D

T3: PLC-γ1 (H335A+D1165H), rat phospholipase C-γ1 residues 21–1215 (rat, UniProt P10686 21-1215, H335A | D1165H)
T3 construct: phospholipase C-γ1, rat, residues 21–1215, with H335A and D1165H; PDB 6PBC is the cited structure of the parent; also called oncogenic mutant of PLC-γ1; source: High Five (Trichoplusia ni) cells, baculovirus, purified (HisTrap IMAC, TEV cleavage, SourceQ, Superdex 200); not shown: His6, N-terminal, cleaved
T3 sequence (looked up): T1 sequence (looked up) with H315A

T4: PLC-γ1 (H335A), rat phospholipase C-γ1 residues 21–1215 (rat, UniProt P10686 21-1215, H335A)
T4 construct: phospholipase C-γ1, rat, residues 21–1215, with H335A; source: High Five (Trichoplusia ni) cells, baculovirus, purified (HisTrap IMAC, TEV cleavage, SourceQ, Superdex 200); not shown: His6, N-terminal, cleaved
T4 sequence (looked up): T1 sequence (looked up) with H315A, H1145D

B1: kinase-inactive kinase domain of human FGFR1 (residues 458–774) phosphorylated at Tyr766 (domain or fragment, UniProt P11362 458-774, looked up)
chain: AGVSEFELPEDPRWELPRDRLVLGKPLGEGCFGQVVLAEAIGLDKDKPNRVTKVAVKMLKSDATEKDLSDLISEMEMMKMIGKHKNIINLLGACTQDGPLYVIVEYASKGNLREYLQARRPPGLEFCFNPSHNPEEQLSSKDLVSCAYQVARGMEYLASKKCIHRDLAARNVLVTEDNVMKIADFGLARDIHHIDFFKKTTNGRLPVKWMAPEALFDRIYTHQSDVWSFGVLLWEIFTLGGSPYPGVPVEELFKLLKEGHRMDKPSNCTNELFMMMRDCWHAVPSQRPTFKQLVEDLDRIVALTSNQEYLDLSMPLD
modifications: phosphotyrosine at 766
notes: fibroblast growth factor receptor 1, human, kinase domain residues 458–774, six tyrosines changed to phenylalanine; Phosphorylation specifically at Tyr766 confirmed by LC-MS/MS; also called pFGFR1K; phosphorylated FGFR1K; source: High Five cells, baculovirus, purified (HisTrap IMAC, TEV cleavage, Superdex 200); phosphorylated in vitro with His6-tagged kinase-active FGFR1K (Y766F), separated by …

Columns and labels:
[1] = target: PLC-γ1 pTyr783 peptide peptide encompassing pTyr783 (Homo sapiens) (UniProt P19174); conditions: cited from earlier work
[2] = target: T1, PLC-γ1 (D1165H), rat phospholipase C-γ1 …; test: cell-based or functional assay
[3] = target: T2, wild-type PLC-γ1, rat phospholipase …; test: cell-based or functional assay
[4] = target: T3, PLC-γ1 (H335A+D1165H), rat …; test: SEC; PLC-γ1 variant mixed with phosphorylated kinase-inactive FGFR1K (two-fold molar excess of one partner), Superdex 200 GL 10 mm x 300 mm, 20 mM HEPES pH 7.5, 100 mM NaCl, 10 mM MgCl2, 2 mM DTT; fractions by SDS-PAGE and Coomassie; complex of PLC-γ1 (H335A) run again after 8 hr on ice; conditions: both partners purified
[5] = target: T4, PLC-γ1 (H335A), rat phospholipase C-γ1 …; test: as above; conditions: both partners purified

Molecule	Kd [1]	basal lipase activity of PLC-γ1 (D1165H) (0.3 nM) on XY-69 in PE:PIP2 (80:20) liposomes with a two-fold molar excess of pFGFR1K, against PLC-γ1 (D1165H) alone [2]	specific lipase activity of PLC-γ1 (10 nM) on XY-69 in PE:PIP2 (80:20) liposomes, pre-incubated with a two-fold molar excess of pFGFR1K, against PLC-γ1 alone [3]	binding result [4]	binding result [5]
PLC-γ1 cSH2 domain cSH2 (from UniProt P19174)	360 nM	–	–	–	–
B1	–	~2 fold	~3 fold	binds	binds
